Test [1] addresses D-allulose 3-epimerase from Staphylococcus aureus (Staphylococcus aureus). The test can be described thus: MALDI-TOF mass spectrometry; purified enzyme on HCCA matrix, acetonitrile-water 70:30 with 0.01% trifluoroacetic acid, linear mode.
Test [2] shares this target. The test can be described thus: SEC; purified SaDAE on Superdex 200 Increase 10/300 GL, 20 mM Tris-HCl pH 8.0, 100 mM NaCl, 1 mM DTT; markers conalbumin (75.0 kDa) and aldolase (158.0 kDa). A general note: SEC sorts molecules by how far they enter the pores of the column.

One may read the stoichiometry N as a count of units in the complex or per binding partner. Consider “D-allulose 3-epimerase from Staphylococcus aureus (enzyme)”, for which the stoichiometry N in test [1] and in test [2] was 4 in each case.

The values are drawn from publication PMC6432756.
